From the DeepSol protein solubility set

experiment: soluble on expression in E. coli; label from the status in PepcDB or PDB records

Soluble on expression in E. coli, soluble:
MNESGFLIDTHAHIDGHDFAADFDAMLSRAWEAGLSHIVTVGADLESSRAAVALAGRHERIWCAVGIHPHDAGRVTDRCYDEIRTLAQGNPKVAAIGEIGLDFFRDRSPRDEQEQVFRRFIRLARELALPIVVHDRDAHERVMAILREEKARDVGGVLHCFSGDLAMARECVDMGFLISIPGTVTYPSNEALREVVRGVKIEHLLVETDCPYLTPVPHRGKRNEPAYVRLTAEKVAELKGLSLEDVGRITSLNARRLFGIGESDQAARIAYRIRNSLYLNITNRCSNRCSFCAKFDDYTVKGHHLRLDHEPDSAEVLAAVGEPGPVDEIVFCGFGEPMLRLDLIVEVARELKKRGFRIRINTDGQANLVHGRNVLPELQGLVDCISVSLNAADADTYARLCNTPFGTNGFNGICRFLEEARLYIPTVVATAVTVPGIDVAAVRALAESLGVEFREREFAEVGLEHHHHHH
MGHHHHHHSHMDGTRTSLDIEEYSDTEVQKNQVLTLEEWQDKWVNGKTAFHQEQGHQLLKKHLDTFLKGKSGLRVFFPLCGKAVEMKWFADRGHSVVGVEISELGIQEFFTEQNLSYSEEPITEIPGTKVFKSSSGNISLYCCSIFDLPRTNIGKFDMIWDRGALVAINPGDRKCYADTMFSLLGKKFQYLLCVLSYDPTKHPGPPFYVPHAEIERLFGKICNIRRLEKVDAFEERHKSWGIDCLFEKLYLLTEK
MSLAIIEEARSGQITDEMKEISKLEGIPVEKVRNRISECKIILIRNAKYPSKKLVPIGKGLTTKVNINIGTSDEVVNLQMELEKVKVANRWGDTLMDLSTGGDLDDIRREIIRASELPVGTVPVYQVFIESFKKKSGGAYFTEDELLSTVEKHLKDGVAFMTIHAGITKELAIRALKSNRIIPIVSRGGDMIAGWMIHNNSENPYRKHWGYLLEMFKEYDAVISLGDALRPGATGDAHDEFQVGELLETARLVKSALKEGVQVMVEGPGHVPLNEIAWDVKLMKKLTGGVPYYVLGPLPIDVGAPYDHIASAIGAAISSAAGADLLCYLTPAEHLGLPTVKQVEEGAIAYRIAAHAGDVVKLGRRVRKWDDEVSYYRGKLEWDNMISRLIDPQRAYQVYTQFGIPKVKACTMCGGYCPMMWAMDQVRKIGSSSSLEGHHHHHH
MFRAAAPGQLRRAASLLRFQSTLVIAEHANDSLAPITLNTITAATRLGGEVSCLVAGTKCDKVAQDLCKVAGIAKVLVAQHDVYKGLLPEELTPLILATQKQFNYTHICAGASAFGKNLLPRVAAKLEVAPISDIIAIKSPDTFVRTIYAGNALCTVKCDEKVKVFSVRGTSFDAAATSGGSASSEKASSTSPVEISEWLDQKLTKSDRPELTGAKVVVSGGRGLKSGENFKLLYDLADQLHAAVGASRAAVDAGFVPNDMQVGQTGKIVAPELYIAVGISGAIQHLAGMKDSKTIVAINKDPEAPIFQVADYGIVADLFKVVPEMTEILKKK
MSLQLLLVDDEEDANEELAELLEGEGFCCFTASSVKMALHQLTAHPDIALVITDLRMPEESGIQLIRHLREHTSRQHLPVIVTSGHADMDDVSDLLRLHVLDLFRKPIYHVRLLETLNNLFPEPKIFQEGHHHHHH
MAEPQPASSGLTDETAFSCCSDPDPSTKDFLLQQTMLRIKDPKKSLDFYTRVLGLTLLQKLDFPAMKFSLYFLAYEDKNDIPKDKSEKTAWTFSRKATLELTHNWGTEDDETQSYHNGNSDPRGFGHIGIAVPDVYSACKRFEELGVKFVKKPDDGKMKGLAFIQDPDGYWIEILNPNKIATII
MIYTLENQHLKISLSNHGGELHSIKGKKDNTEFLWSGDEAYWKYHAPILFPIVGKVFNGKYTVDGITYELPQHGLARVRDFEMIEQTKNSISFELKYSEDTLKVYPFKFSLIIKYTLNDINLSIDYIVKNLDNKEMYFSIGAHPAFMCPIENDKFDDYYFEFNKKENASIMQLVGPGYFSKEEKPYLKDEHIINLSTDLFKNDALVFKNLKSNKISLKSKNHKKYLEFDFGEFPYLGLWTKDTGAPFVCIEPWFGHADFDGFNGEFKDKAAIQSLMPNKEFHCNYNISFFELEHHHHHH
MGHHHHHHSHMAASFAFLRDVRPYKTSWRVQVKVLHSWCQYTNMTGETLKLVLVNSQGVKIHASVKKDLVSKYVNNLPLNEWTFIETFALNHASGQFRPTGHLYKMSFVTGTQVIRCDS
MQIFRDVSKLLVERVDPKILNLFRLLGKFGDEVNMPVYVVGGFVRDLLLGIKNLDIDIVVEGNALEFAEYAKRFLPGKLVKHDKFMTASLFLKGGLRIDIATARLEYYESPAKLPDVEMSTIKKDLYRRDFTINAMAIKLNPKDFGLLIDFFGGYRDLKEGVIRVLHTLSFVDDPTRILRAIRFEQRFDFRIEETTERLLKQAVEEGYLERTTGPRLRQELEKILEEKNPLKSIRRMAQFDVIKHLFPKTYYTPSMDEKMENLFRNIPWVEENFGEVDRFYAVLHVFLEFYDDESWKEVRDRYSLRRNLINEIRHVEKSAPALLEMLSERVPASFVYPLVKGVSNETICHFLAYLSGEKEGLFKSYLLKIKNTKLEKINGEYLIRKGITSGKIIGEVLEKILMKKLDGDTRDEEEILEEVLASLETEGKLAAALEHHHHHH
AIAEVLRPPLININGRIYRKNPVQEETYEEEEEDCSYSEAAVDQCLDEPCDAHNIEQTDRGFRCALDVPSVLYKYIIGKKGETRRRLESETKTSINIPKQGVEGQIVVTGAHRPSVSSAVTRIEVLIDSFRRKQPFTHFLSFALNHAQVREGFLRFREEVLEHCSQDSGVDVSIFQNPDKLHLTIGTLVLLNQQEVTRANELLHQCQDTIREITGAEALPVEVRGVEYMNDDPSMVDVLYAKVSVQDGSDRLQQISDRLVECFVSAGLMERERDRVKIHATVMNTLFRRDPSAEDRGAPARANPRDREAFNGKNILQMFGDFYFGAFELNSVQISQRFSTDSSGYYSSAGHITFS

Soluble on expression in E. coli, not soluble:
MGSDKIHHHHHHMIKMRIKPLEEYRIGLRQSSGIVIENVDVISAFPSPTTILGIIGAMKNAKPSQLSGIDDLREAYTSLTGNNTLSGDCDSSDNPLIWGPLIKEKDNKIYTPLFFNKLILDPIEYVKTSLNENVKVQSESLVKEIGIQIRRMNQMNRGSRNTIHLFYQKFFGSNYELEYCINIDDLKKLVKENVVALGGENRYARVRIDNGNCNFGNGNYAILLQPLLFESDSEYFVRLDNVKGLGCIDEIYGVLVEKGNKIDFNNFKVKVVYYALGYGNERRPMLQALPPGTVIKVKETCNNAKALGLLSELGFGAIYRVDPGNR
MKKSNIKTLEQFKDQNYGKKGTAKRDSLEMGYDTFKIGALIQEARIEKGMTQEELAIKCGTTKSYISRIENNIKEVRISTLQKIVELGFGGQLQLSIKF
MGSDKIHHHHHHLRALGYQGRDVEVVALNDAQYLVAACDSCGAIGEKELDAVKVPWRVTGRMTARVALLEVLAVGAVPQMLSIAIANEPLPAGEEIMKGVREELKAMNLLSLPAAVSTEKNMPTEQTGLGITVIGLCDQDKLRIGRARPGNSLFCLGLPKVGTEAADPEDPDILQGIHLIQLLNIPGVYDIIPVGSQGIRGEAEALAQAVGARFGEDSQCRLDINKSAGPSTCLIFTAAEDIELGDFGKLPIHKIGRLEEDGGGGLLTENED
MTQRPWSKLQREIYDLLTPTINLQIHCTRYPMRSQNGGSTDLPRYWITLDKNVIWDYPKDFIAGNAGVRNFHGETCWYPYLTDICSISDLLREYIDTPKAELLTKQFTSDKWGLVNILRAADRRIGMRRLDQLRRKTHNIAALKIIARRSE
METQWTRMTANEAAEIIQHNDMVAFSGFTPAGSPKALPTAIARRANEQHEAKKPYQIRLLTGASISAAADDVLSDADAVSWRAPYQTSSGLRKKINQGAVSFVDLHLSEVAQMVNYGFFGDIDVAVIEASALAPDGRVWLTSGIGNAPTWLLRAKKVIIELNHYHDPRVAELADIVIPGAPPRRNSVSIFHAMDRVGTRYVQIDPKKIVAVVETNLPDAGNMLDKQNPMCQQIADNVVTFLLQEMAHGRIPPEFLPLQSGVGNINNAVMARLGENPVIPPFMMYSEVLQESVVHLLETGKISGASASSLTISADSLRKIYDNMDYFASRIVLRPQEISNNPEIIRRLGVIALNVGLEFDIYGHANSTHVAGVDLMNGIGGSGDFERNAYLSIFMAPSIAKEGKISTVVPMCSHVDHSEHSVKVIITEQGIADLRGLSPLQRARTIIDNCAHPMYRDYLHRYLENAPGGHIHHDLSHVFDLHRNLIATGSMLGLEHHHHHH
MGSDKIHHHHHHMIQADEVAERRLMNIPISGGQHGLFERLFAELRPKLHRYCARMTGSVFDGEDVLQETLAKAIEALPGAGPIANPEGWLFRIAHNAALDFLRRRAREQAYSDEDLDMIVDPANPTIDRQAASAGLHTFMRLPVTQRSSVIMMDVLGYSLQEISAMLDTSIPAVKAALHRGRDRLRQIANEPHDRPLPRLGAAERQLLNAYIDRFNARDFDAVRDMLAEEVRLELVAKTRLNGREEVGTYFGNYSRAQDWHLVPGFVENRPAILVHDLNDPATRPAYFIVLAWHDGRLAAIGDFRHARYVADSADMHAL
MNKDTVLNVTVMGREFRIHCPGEEREELLLAVSCLNRKMQEIKSAGKIAGTEQIAIAAAISMTHELLSIRSQRGFDMNEFKRRIELLECRVSDALTDQGIYKNS
MGSDKIHHHHHHMKMFKLEEQKLKDLGAIITTNEIKQQPELWLETYEIYKSNKEKLSRFIDTISNNHGQFRVIFTGAGTSAYIGNSILPYLKNKNDIRKYIFEAIPTTDIVSNPYDYLKKDIPTLLISFARSGNSPESLAALNLGNKIVDNFYHLAITCNPEGELAKMTKNDENNYLLLMPSKSNDEGFAMTGSFSCMMLSAMLIFDSLEDDVEKSYINAIIEMGRNVIDRKDEIHELINKDFDRVVYLGSGGLGGLTQEAQLKLLELTAGKISTVYDSPMGFRHGPKSFIDENTLVFEFVSNCLYTRKYDLDVLEEIKRDKIAKFTCAVSVENENNFSGTKFEFKEKYNKLPDVYLAMPYILFAQTIALFVSVKVGNKPDTPSATGTVNRVVKGVTIYEY
MCMKQSLFGRVRDAILADFHNVLDEKERKNPIAMLNQYLRDSEREITKIEKLIQRHKTLKSNFARELEQARYFVNKRSKQALIAQEAGELQLHERALEEVAYYEGQVTRLEEMYAGVVEQIDELERRLSEMKNKLKEMHAKRMELMARENMAHANRRMNTAMHKMDENNPFLRFEEIEEHIRDLETRMNEEHERDTFDMKIAKLEREMKEKNDVSLTKELTKLEHHHHHH
MKEDLLDIVCCPLDKHDLTLDADATEDGEVMAGTLTCTDCGETYPIEDGIPNLLPPDMRDDAESASALEHHHHHH
MTRSRRGALARSSEGGPFPTADPVADRALCGWRVRSVIDLPELPLWTRDDRLPDVTIAFGRVTPVESASPGMNWHVVGEGRFRFTVASVGSYRISRGRVITIDPQAGVVASAVRQYLLGTAFGVLCHQRGLLPLHASCVAINGRAVAIAGASGAGKSSLAAALVRLGYPLLGDDVCVIDASEINAPHVLPAIPRLKLWRDVLDTFGLIVDPAARILEGIDKYQAQALADRPPPPPPQVPLPLGVVYYLDQAESPDDEGFHAIRGAERAAALAGAVYRRKMGLAMGLLPQIFTATMTVGALVPGHRLLRHGDLSGLDALARSVAARQEGRGLEHHHHHH
